Source: PMC3422339, “Interactions and CCAAT-Binding of Arabidopsis thaliana NF-Y Subunits”

Molecular target: mouse NF-YA minimal domain;mouse NF-YB HFD;mouse NF-YC HFD (mouse;mouse;mouse, UniProt P23708-2;P63139;P70353 233-303;49-141;27-120, ||)
Assay: agarose EMSA; positive control; 32P EMSA: 20 mM Hepes pH 7.9, 50 mM NaCl, 5% glycerol, 5 mM MgCl2, 5 mM b-ME, 20 C; Cy5 agarose EMSA: 20 nM DNA, 20 mM Tris pH 7.5, 50 mM NaCl, 0.5 mM EDTA, 5 mM MgCl2, 2.5 mM DTT, 0.1 mg/ml BSA, 5% glycerol, 23 C
Conditions: protein: recombinant;recombinant;recombinant; tags: C-terminal His cleaved by thrombin;6His in dimer; untagged in purified trimer;; copies: 1;1;1; label: 5'-Cy5; blunt

mouse NF-YA minimal domain;mouse NF-YB HFD;mouse NF-YC HFD, sequence (P23708 261-331, chain 1 of 3): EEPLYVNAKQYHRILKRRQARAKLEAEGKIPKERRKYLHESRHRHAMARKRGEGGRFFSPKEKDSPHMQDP
mouse NF-YA minimal domain;mouse NF-YB HFD;mouse NF-YC HFD, sequence (P63139 49-141, chain 2 of 3): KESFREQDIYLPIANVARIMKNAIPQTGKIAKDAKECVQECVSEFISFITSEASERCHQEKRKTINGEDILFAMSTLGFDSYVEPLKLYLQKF
mouse NF-YA minimal domain;mouse NF-YB HFD;mouse NF-YC HFD, sequence (P70353 27-120, chain 3 of 3): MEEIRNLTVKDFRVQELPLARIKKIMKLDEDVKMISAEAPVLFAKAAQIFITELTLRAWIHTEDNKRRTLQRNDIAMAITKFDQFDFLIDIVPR

B1: HSP70 CCAAT 31 bp probe (dsDNA)
DNA 1: CTTCTGAGCCAATCACCGAGCTCGATGAGGC
DNA 2: GCCTCATCGAGCTCGGTGATTGGCTCAGAAG
  binding result: binds
